Assay results reported in patent US20110263454A1, “Methods of Identifying Functional Characteristics of Promoters, Transcription Modifying Proteins and Transcription Modulating Agents” (Salk Institute for Biological Studies, priority 2008, published 2011).

How the values were obtained:
[1] = system: mNPY promoter; assay: NHR-promoter luciferase screen, mNPY promoter; type: cell-based, mouse; conditions: for Results of assays of transcription factor (+/- ligand) with mNPY: Table 6d, luciferase activity relative to control (control = 1.00); for Luc. act., normalized to lacZ / Normalized Luc. act., normalized to control: mNPY promoter, HR component with or without ligand; for Normalized Luc. act., normalized to control: relative to control
How it was run: (§1)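 CV-1 cells were co-transfected with 50 ng NHR (homodimer or NHR/RXR heterodimer), 100 ng promoter-luciferase construct and 50 ng LacZ. Luciferase was normalized to LacZ and to a no-NHR/no-ligand control.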

[2] = system: mDio2 promoter; assay: NHR-promoter luciferase screen, mDio2 promoter; type: cell-based, mouse; conditions: for Luc. act., normalized to lacZ / Normalized Luc. act., normalized to control: Dio2, HR component without or with its ligand; for mDio2 promoter reporter activity: transcription factor +/- ligand, control = 1.00
How it was run: as §1

[3] = system: mUCP3 promoter; assay: NHR-promoter luciferase screen, mUCP3 promoter; type: cell-based, mouse; conditions: for Normalized Luc. act., normalized to control / Luc. act., normalized to lacZ: mUCP3 promoter reporter; for Normalized Luc. act., normalized to control: HR without or with its ligand, relative to control; for Luc. act., normalized to lacZ: hormone receptor (HR) without or with its ligand; for mUCP3 promoter reporter activity: transcription factor +/- ligand, control = 1.00
How it was run: as §1

[4] = system: hMyoD promoter; assay: NHR-promoter luciferase screen, hMyoD promoter; type: cell-based, human; conditions: for Luc. act., normalized to lacZ / Normalized Luc. act., normalized to control: MyoD promoter reporter, co-transfected HR, without or with its ligand; for Normalized Luc. act., normalized to control: relative to control; for luciferase activity normalized to lacZ activity and to a control, hMyoD: hMyoD promoter-luciferase, CV-1 cells, NHR +/- ligand, control = 1.00
How it was run: as §1

[5] = system: mABCA1 promoter; assay: NHR-promoter luciferase screen, mABCA1 promoter; type: cell-based, mouse; conditions: for Luc. act., normalized to lacZ / Normalized Luc. act., normalized to control: ABCA1 promoter, hormone receptor with or without its ligand; for Normalized Luc. act., normalized to control: relative to control; for mABCA1 promoter reporter activity: transcription factor +/- ligand, control = 1.00
How it was run: as §1

[6] = system: hCAR promoter; assay: NHR-promoter luciferase screen, hCAR promoter; type: cell-based, human; conditions: for luciferase activity normalized to lacZ activity and to a control, hCAR: hCAR promoter-luciferase, CV-1 cells, NHR +/- ligand, control = 1.00; for Luc. act., normalized to lacZ / Normalized Luc. act., normalized to control: hCAR promoter, HR/ligand component
How it was run: as §1

Molecule	Results of assays of transcription factor (+/- ligand) with mNPY [1]	Luc. act., normalized to lacZ [1]	Normalized Luc. act., normalized to control [1]	Luc. act., normalized to lacZ [2]	Normalized Luc. act., normalized to control [2]	mDio2 promoter reporter activity [2]	Normalized Luc. act., normalized to control [3]	Luc. act., normalized to lacZ [3]	mUCP3 promoter reporter activity [3]	Luc. act., normalized to lacZ [4]	Normalized Luc. act., normalized to control [4]	luciferase activity normalized to lacZ activity and to a control, hMyoD [4]	Luc. act., normalized to lacZ [5]	Normalized Luc. act., normalized to control [5]	mABCA1 promoter reporter activity [5]	luciferase activity normalized to lacZ activity and to a control, hCAR [6]	Luc. act., normalized to lacZ [6]	Normalized Luc. act., normalized to control [6]
SHP: Small Heterodimer Partner (NR0B2), cDNA driver (protein, UniProt Q15466 1-257, looked up) Nuclear receptor subfamily 0 …: MSTSQPGACPCQGAASRPAILYALLSSSLKAVPRPRSRCLCRQHRPVQLCAPHRTCREALDVLAKTVAFLRNLPSFWQLPPQDQRRLLQGCWGPLFLLGLAQDAVTFEVAEAPVPSILKKILLEEPSSSGGSGQLPDRPQPSLAAVQWLQCCLESFWSLELSPKEYACLKGTILFNPDVPGLQAASHIGHLQQEAHWVLCEVLEPWCPAAQGRLTRVLLTASTLKSIPTSLLGDLFFRPIIGDVDIAGLLGDMLLLR	0.81	68.3	0.8	18.4	1.2	1.17	1.1	0.77	1.15	54.0	0.9	0.85	6.8	1.2	1.21	0.99	31.3	1.0
DAX-1: DAX1 (NR0B1), cDNA driver (protein, UniProt P51843 1-470, looked up) Nuclear receptor subfamily 0 …: MAGENHQWQGSILYNMLMSAKQTRAAPEAPETRLVDQCWGCSCGDEPGVGREGLLGGRNVALLYRCCFCGKDHPRQGSILYSMLTSAKQTYAAPKAPEATLGPCWGCSCGSDPGVGRAGLPGGRPVALLYRCCFCGEDHPRQGSILYSLLTSSKQTHVAPAAPEARPGGAWWDRSYFAQRPGGKEALPGGRATALLYRCCFCGEDHPQQGSTLYCVPTSTNQAQAAPEERPRAPWWDTSSGALRPVALKSPQVVCEAASAGLLKTLRFVKYLPCFQVLPLDQQLVLVRNCWASLLMLELAQDRLQFETVEVSEPSMLQKILTTRRRETGGNEPLPVPTLQHHLAPPAEARKVPSASQVQAIKCFLSKCWSLNISTKEYAYLKGTVLFNPDVPGLQCVKYIQGLQWGTQQILSEHTRMTHQGPHDRFIELNSTLFLLRFINANVIAELFFRPIIGTVSMDDMMLEMLCTKI	1.02	86.0	1.0	18.7	1.2	1.19	1.3	0.89	1.31	61.3	1.0	0.97	5.8	1.0	1.04	1.20	38.0	1.2
GCNF: Germ Cell Nuclear Factor (NR6A1, GCNF1), cDNA driver (protein, UniProt Q15406 1-480, looked up) Nuclear receptor subfamily 6 …: MERDEPPPSGGGGGGGSAGFLEPPAALPPPPRNGFCQDELAELDPGTISVSDDRAEQRTCLICGDRATGLHYGIISCEGCKGFFKRSICNKRVYRCSRDKNCVMSRKQRNRCQYCRLLKCLQMGMNRKAIREDGMPGGRNKSIGPVQISEEEIERIMSGQEFEEEANHWSNHGDSDHSSPGNRASESNQPSPGSTLSSSRSVELNGFMAFREQYMGMSVPPHYQYIPHLFSYSGHSPLLPQQARSLDPQSYSLIHQLLSAEDLEPLGTPMLIEDGYAVTQAELFALLCRLADELLFRQIAWIKKLPFFCELSIKDYTCLLSSTWQELILLSSLTVYSKQIFGELADVTAKYSPSDEELHRFSDEGMEVIERLIYLYHKFHQLKVSNEEYACMKAINFLNQDIRGLTSASQLEQLNKRYWYICQDFTEYKYTHQPNRFPDLMMCLPEIRYIAGKMVNVPLEQLPLLFKVVLHSCKTSVGKE	0.64	53.5	0.6	22.7	1.4	1.44	1.0	0.66	0.98	50.5	0.8	0.80	7.6	1.4	1.36	0.93	29.2	0.9
